# According to paper PMC10397247:
# T1: P6-AA-12HAA-S
# T1 chain: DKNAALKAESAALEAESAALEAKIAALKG
# T2: 4H1639-AA
# T2 chain: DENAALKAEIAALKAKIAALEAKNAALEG
# T3: 4H2604-AA
# T3 chain: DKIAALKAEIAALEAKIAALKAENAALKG
# T4: O2-AA
# T4 chain: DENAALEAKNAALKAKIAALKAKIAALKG
# T5: O3-AA
# T5 chain: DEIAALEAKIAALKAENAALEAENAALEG
# T6: Core_NNII-es_KKKK
# T6 chain: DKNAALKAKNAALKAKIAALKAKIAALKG
# T7: P6-AA-12HGe-T
# T7 chain: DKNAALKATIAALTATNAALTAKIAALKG
# T8: P6-AA-1HAA-L
# T8 chain: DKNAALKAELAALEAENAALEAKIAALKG
# T9: P6-AA-1HAA-V
# T9 chain: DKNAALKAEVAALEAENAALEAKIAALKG
# T10: P6-AA-1HGe-A
# T10 chain: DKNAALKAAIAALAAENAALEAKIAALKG
# T11: P6-AA-12HGe-R
# T11 chain: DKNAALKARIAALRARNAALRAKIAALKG
# T12: P6-AA-1HAA-D
# T12 chain: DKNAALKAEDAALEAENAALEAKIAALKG
# T13: 4H2873-AA
# T13 chain: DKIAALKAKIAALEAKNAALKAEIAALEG
# T14: 4H2687-AA
# T14 chain: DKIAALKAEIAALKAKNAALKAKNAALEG
# T15: 4H1710-AA
# T15 chain: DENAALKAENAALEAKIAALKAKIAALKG
# T16: 4H662-AA
# T16 chain: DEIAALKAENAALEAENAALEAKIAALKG
# T17: 4H2187-AA
# T17 chain: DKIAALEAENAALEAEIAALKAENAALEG
# T18: 4H2758-AA
# T18 chain: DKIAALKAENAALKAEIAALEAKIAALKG
# T19: 4H327-AA
# T19 chain: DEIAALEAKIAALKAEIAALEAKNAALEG
# T20: 4H2935-AA
# T20 chain: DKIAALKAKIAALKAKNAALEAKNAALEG
# T21: 4H2513-AA
# T21 chain: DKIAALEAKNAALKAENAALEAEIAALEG
# T22: 4H3020-AA
# T22 chain: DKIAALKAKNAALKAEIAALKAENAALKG
# T23: 4H1446-AA
# T23 chain: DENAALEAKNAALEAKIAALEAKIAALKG
# T24: 4H140-AA
# T24 chain: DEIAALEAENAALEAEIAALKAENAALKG
# T25: 4H58-AA
# T25 chain: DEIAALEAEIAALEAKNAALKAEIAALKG
# T26: 4H2742-AA
# T26 chain: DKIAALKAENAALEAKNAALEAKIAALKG
# T27: 4H3066-AA
# T27 chain: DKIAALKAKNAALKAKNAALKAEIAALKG
# T28: 4H497-AA
# T28 chain: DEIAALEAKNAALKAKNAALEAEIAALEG
# T29: 4H2283-AA
# T29 chain: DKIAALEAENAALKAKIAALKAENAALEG
# T30: 4H3591-AA
# T30 chain: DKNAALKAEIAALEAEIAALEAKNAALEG
# T31: P5-AA-1HAA-D
# T31 chain: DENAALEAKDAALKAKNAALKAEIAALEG
# T32: P5-AA-12HGe-H
# T32 chain: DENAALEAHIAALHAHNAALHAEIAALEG
# T33: P5-AA-1HGe-M
# T33 chain: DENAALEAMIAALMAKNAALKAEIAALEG
# T34: P5-AA-12HGe-Y
# T34 chain: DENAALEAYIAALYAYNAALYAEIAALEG
# T35: P5-AA-12HGe-W
# T35 chain: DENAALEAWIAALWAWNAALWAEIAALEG
# T36: P5-AA-1HGe-Y
# T36 chain: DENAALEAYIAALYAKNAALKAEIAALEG
# T37: P5-AA-1HGe-A
# T37 chain: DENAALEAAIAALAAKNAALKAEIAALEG
# T38: P5-AA-1HAA-Y
# T38 chain: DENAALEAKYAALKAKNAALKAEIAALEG
# T39: 4H733-AA
# T39 chain: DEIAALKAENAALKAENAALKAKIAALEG
# T40: APC232-AA
# T40 chain: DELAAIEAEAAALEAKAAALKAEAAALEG
# T41: APC1434-AA
# T41 chain: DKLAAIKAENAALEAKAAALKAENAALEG
# T42: 4H2148-AA
# T42 chain: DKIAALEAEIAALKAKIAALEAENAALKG
# Legend:
# Experiment in all cases: two-hybrid library CCmax;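 also: natural log of median RNA to DNA barcode read ratio; higher means stronger binding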
# Details in all cases: mean of both orientations
# [1] = molecular target: T1, P6-AA-12HAA-S
# [2] = molecular target: T2, 4H1639-AA
# [3] = molecular target: T3, 4H2604-AA
# [4] = molecular target: T4, O2-AA
# [5] = molecular target: T5, O3-AA
# [6] = molecular target: T6, Core_NNII-es_KKKK
# [7] = molecular target: T7, P6-AA-12HGe-T
# [8] = molecular target: T8, P6-AA-1HAA-L
# [9] = molecular target: T9, P6-AA-1HAA-V
# [10] = molecular target: T10, P6-AA-1HGe-A
# [11] = molecular target: T11, P6-AA-12HGe-R
# [12] = molecular target: T12, P6-AA-1HAA-D
# [13] = molecular target: T13, 4H2873-AA
# [14] = molecular target: T14, 4H2687-AA
# [15] = molecular target: T15, 4H1710-AA
# [16] = molecular target: T16, 4H662-AA
# [17] = molecular target: T17, 4H2187-AA
# [18] = molecular target: T18, 4H2758-AA
# [19] = molecular target: T19, 4H327-AA
# [20] = molecular target: T20, 4H2935-AA
# [21] = molecular target: T21, 4H2513-AA
# [22] = molecular target: T22, 4H3020-AA
# [23] = molecular target: T23, 4H1446-AA
# [24] = molecular target: T24, 4H140-AA
# [25] = molecular target: T25, 4H58-AA
# [26] = molecular target: T26, 4H2742-AA
# [27] = molecular target: T27, 4H3066-AA
# [28] = molecular target: T28, 4H497-AA
# [29] = molecular target: T29, 4H2283-AA
# [30] = molecular target: T30, 4H3591-AA
# [31] = molecular target: T31, P5-AA-1HAA-D
# [32] = molecular target: T32, P5-AA-12HGe-H
# [33] = molecular target: T33, P5-AA-1HGe-M
# [34] = molecular target: T34, P5-AA-12HGe-Y
# [35] = molecular target: T35, P5-AA-12HGe-W
# [36] = molecular target: T36, P5-AA-1HGe-Y
# [37] = molecular target: T37, P5-AA-1HGe-A
# [38] = molecular target: T38, P5-AA-1HAA-Y
# [39] = molecular target: T39, 4H733-AA
# [40] = molecular target: T40, APC232-AA
# [41] = molecular target: T41, APC1434-AA
# [42] = molecular target: T42, 4H2148-AA
binder,measurement,setting,value
DENAALEAKIAALKAKIAALKAEIAALEG [4H1385-AA],interaction score,[1],1.43
DENAALKAEIAALKAENAALKAEIAALKG [4H1626-AA],interaction score,[2],-1.38
DEIAALEAENAALKAKNAALKAEIAALEG [4H249-AA],interaction score,[3],-1.73
DEIAALEAENAALEAKIAALKAENAALEG [4H171-AA],interaction score,[4],-1.24
same,interaction score,[5],-1.73
DENAALEAENAALEAEIAALEAEIAALEG [4H1153-AA],interaction score,[6],1.83
DENAALEAKIAALKAKNAALKAEIAALEG [4H1401-AA],interaction score,[7],0.16
same,interaction score,[8],2.1
same,interaction score,[9],2.18
same,interaction score,[10],2.14
same,interaction score,[11],-1.02
same,interaction score,[12],0.667
DENAALEAKIAALKAEIAALEAKIAALKG [4H1350-AA],interaction score,[13],1.38
same,interaction score,[14],-0.889
same,interaction score,[15],0.556
same,interaction score,[16],-1.35
same,interaction score,[17],-1.97
same,interaction score,[18],-0.48
same,interaction score,[19],2.32
same,interaction score,[20],-0.765
same,interaction score,[21],-1.31
DENAALEAENAALKAKIAALKAEIAALEG [4H1257-AA],interaction score,[22],-1.1
same,interaction score,[23],0.0702
same,interaction score,[24],-1.43
same,interaction score,[25],-1.21
DENAALEAEIAALEAKIAALEAKNAALKG [4H1064-AA],interaction score,[26],-1.78
same,interaction score,[27],-1.4
same,interaction score,[28],-1.3
same,interaction score,[29],-1.69
same,interaction score,[30],0.232
DKNAALKAEIAALEAENAALEAKIAALKG [4H3606-AA],interaction score,[31],1.43
same,interaction score,[32],1.86
same,interaction score,[33],2.26
same,interaction score,[34],2.52
same,interaction score,[35],1.04
same,interaction score,[36],2.36
same,interaction score,[37],2.06
same,interaction score,[38],2.23
DENAALKAKIAALEAKNAALEAKIAALEG [4H1845-AA],interaction score,[39],-1.33
same,interaction score,[40],-2.09
same,interaction score,[41],-1.56
same,interaction score,[42],-1.61
